This passage reports sHA102-mediated KOS/tk12 infection of receptor-deficient CHO-K1 cells; sHA102 0-1,000 nM, MOI 3 and 9; ONPG assay and X-gal staining (percent of cells infected) (% of the cells infected) results from publication PMC3285515.

The target of this test is HSV-1 glycoprotein D (gD), wild type, on KOS/tk12 virions (HSV-1 (strain KOS)) (UniProt A1Z0Q5).
Chain of UniProt A1Z0Q5 (A1Z0Q5 26-394): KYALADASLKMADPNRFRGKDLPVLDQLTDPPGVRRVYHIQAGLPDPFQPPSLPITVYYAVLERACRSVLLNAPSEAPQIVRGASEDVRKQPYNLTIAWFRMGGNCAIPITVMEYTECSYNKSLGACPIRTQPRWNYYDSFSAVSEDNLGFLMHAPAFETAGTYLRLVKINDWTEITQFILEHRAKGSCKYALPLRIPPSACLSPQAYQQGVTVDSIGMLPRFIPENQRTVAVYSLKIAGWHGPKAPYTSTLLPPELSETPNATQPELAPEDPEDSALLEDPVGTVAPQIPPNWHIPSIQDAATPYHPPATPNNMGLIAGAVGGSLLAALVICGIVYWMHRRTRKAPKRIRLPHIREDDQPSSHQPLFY

In the case of “sHA102, soluble HVEM (HveA) protein containing the first two cysteine-rich pseudorepeats (N-terminal 102 amino acids of HVEM) (domain or fragment)”, the sHA102-mediated KOS/tk12 infection of receptor-deficient CHO-K1 cells; sHA102 0-1,000 nM, MOI 3 and 9; ONPG assay and X-gal staining (percent of cells infected) (% of the cells infected) lay within 90 to 100.
